{"source": "paper PMC9249833", "target": "HisTmod (His-tagged recombinant AjTmod) (Apostichopus japonicus)", "experiment": "MST; Monolith NT.115; His-tagged AjTmod labelled with NT-647-NHS (about 5 uM), 16 serial concentrations of the unlabelled partner; 50 mM Tris-HCl pH 8.0, 0.02% Tween 20; 25 °C; three repeats"}
{"substance": "GSTFliC fusion protein (GST-fused Vibrio splendidus AJ01 flagellin C) (natural protein)", "values": [{"measurement": "Kd", "result": 8.6, "unit": "nM"}]}
